Results: patent US20250186614A1, “COMPACT DRUG RESPONSIVE DOMAINS FOR REGULATION OF FUNCTION/ABUNDANCE AND DELIVERY OF POLYPEPTIDE PAYLOADS” (OBSIDIAN THERAPEUTICS, INC., priority 2022, published 2025)
Where two headings read alike, the source gives them in different places.

Test: Example 4: dose response of FKBP constructs 160-255, Ec50, Ec90 and fold change (raw and normalized to mCherry)
Format: cell-based
Conditions: for FC (fold change): fold change during initial analysis
Protocol: Additional experiments were performed for constructs FKBP-160-292.

[1] = FKBP constructs 160-255, not normalized, read-out: EC90
[2] = normalized to mCherry, read-out: EC90 (Norm)

Row | Molecule | EC90 [1] [nM] | FC (fold change) | EC90 [2] [nM]
1 | FKBP-208 (protein, Description of sequence: Construct Name: FKBP-208; Mutation(s): Q72R Q84E A117W V85R DRD M54A E130R) HCPIKSRKGDVLHAHYTGKLEDGTEFDSSLPRNQPFVFSLGTGERIKGWDQGLLGMCEGEKRKLVIPSELGYGERGWPPKIPGGATLVFRVELLKIER | 4220 | 87.2 | 4120
2 | FKBP-211 (protein, Description of sequence: Construct Name: FKBP-211; Mutation(s): Q72R Q84E A117W V85R DRD M54A D62S) HCPIKSRKGDVLHAHYTGKLESGTEFDSSLPRNQPFVFSLGTGERIKGWDQGLLGMCEGEKRKLVIPSELGYGERGWPPKIPGGATLVFEVELLKIER | 452 | 35.7 | 481
3 | FKBP-226: FKBP13 DRD-AcGFP construct of Table 10 (protein, Description of sequence: Construct Name: FKBP-226; Mutation(s): Q72R Q84E A117W V85R DRD P43R M54A) HCRIKSRKGDVLHAHYTGKLEDGTEFDSSLPRNQPFVFSLGTGERIKGWDQGLLGMCEGEKRKLVIPSELGYGERGWPPKIPGGATLVFEVELLKIER | 44.6 | 31.5 | 47
4 | FKBP-225 (protein, Description of sequence: Construct Name: FKBP-225; Mutation(s): Q72R Q84E A117W V85R DRD P43R) HCRIKSRKGDVLHMHYTGKLEDGTEFDSSLPRNQPFVFSLGTGERIKGWDQGLLGMCEGEKRKLVIPSELGYGERGWPPKIPGGATLVFEVELLKIER | 25.4 | 20.6 | 26
5 | FKBP-210 (protein, Description of sequence: Construct Name: FKBP-210; Mutation(s): Q72R Q84E A117W V85R DRD M54A E98L) HCPIKSRKGDVLHAHYTGKLEDGTEFDSSLPRNQPFVFSLGTGERIKGWDQGLLGMCLGEKRKLVIPSELGYGERGWPPKIPGGATLVFEVELLKIER | 191 | 32.8 | 208
6 | FKBP-223: FKBP13 DRD-AcGFP construct of Table 10 (protein, Description of sequence: Construct Name: FKBP-223; Mutation(s): Q72R Q84E A117W V85R DRD M54A P4W T25R) HCWIKSRKGDVLHAHYTGKLEDGREFDSSLPRNQPFVFSLGTGERIKGWDQGLLGMCEGEKRKLVIPSELGYGERGWPPKIPGGATLVFEVELLKIER | 674 | 52.5 | 713
7 | FKBP-213 (protein, Description of sequence: Construct Name: FKBP-213; Mutation(s): Q72R Q84G A117W DRD P43R M54A) HCRIKSRKGDVLHAHYTGKLEDGTEFDSSLPRNQPFVFSLGTGGVIKGWDQGLLGMCEGEKRKLVIPSELGYGERGWPPKIPGGATLVFEVELLKIER | 47.4 | 28.8 | 47
8 | FKBP-224 (protein, Description of sequence: Construct Name: FKBP-224; Mutation(s): Q72R Q84E A117W DRD P43R) HCRIKSRKGDVLHMHYTGKLEDGTEFDSSLPRNQPFVFSLGTGEVIKGWDQGLLGMCEGEKRKLVIPSELGYGERGWPPKIPGGATLVFEVELLKIER | 78.6 | 5.2 | 88.7
9 | FKBP-216 (protein, Description of sequence: Construct Name: FKBP-216; Mutation(s): Q72R Q84E A117W DRD M54A E61Y K101W K135Y) HCPIKSRKGDVLHAHYTGKLYDGTEFDSSLPRNQPFVFSLGTGEVIKGWDQGLLGMCEGEWRKLVIPSELGYGERGWPPKIPGGATLVFEVELLYIER | 14100 | 27.6 | 14500
10 | FKBP-222 (protein, Description of sequence: Construct Name: FKBP-222; Mutation(s): Q72R Q84E A117W DRD P4W T25R) HCWIKSRKGDVLHMHYTGKLEDGREFDSSLPRNQPFVFSLGTGEVIKGWDQGLLGMCEGEKRKLVIPSELGYGERGWPPKIPGGATLVFEVELLKIER | 612 | 40.6 | 602
11 | FKBP-214: FKBP13 DRD-AcGFP construct of Table 10 (protein, Description of sequence: Construct Name: FKBP-214; Mutation(s): Q72R Q84G A117W V85R DRD P43R M54A) HCRIKSRKGDVLHAHYTGKLEDGTEFDSSLPRNQPFVFSLGTGGRIKGWDQGLLGMCEGEKRKLVIPSELGYGERGWPPKIPGGATLVFEVELLKIER | 388 | 51.0 | 390
12 | FKBP-219 (protein, Description of sequence: Construct Name: FKBP-219; Mutation(s): Q72R Q84E A117W V85R DRD M54A E61G K101G K135E) HCPIKSRKGDVLHAHYTGKLGDGTEFDSSLPRNQPFVFSLGTGERIKGWDQGLLGMCEGEGRKLVIPSELGYGERGWPPKIPGGATLVFEVELLEIER |  | 5.4 | 
13 | FKBP-218 (protein, Description of sequence: Construct Name: FKBP-218; Mutation(s): Q72R Q84E A117W DRD M54A E61G K101G K135E) HCPIKSRKGDVLHAHYTGKLGDGTEFDSSLPRNQPFVFSLGTGEVIKGWDQGLLGMCEGEGRKLVIPSELGYGERGWPPKIPGGATLVFEVELLEIER |  | 4.46 | 
14 | FKBP-221 (protein, Description of sequence: Construct Name: FKBP-221; Mutation(s): Q72R Q84E A117W V85R DRD M54A T25G) HCPIKSRKGDVLHAHYTGKLEDGGEFDSSLPRNQPFVFSLGTGERIKGWDQGLLGMCEGEKRKLVIPSELGYGERGWPPKIPGGATLVFEVELLKIER | 495 | 41.8 | 567
15 | FKBP-217 (protein, Description of sequence: Construct Name: FKBP-217; Mutation(s): Q72R Q84E A117W V85R DRD M54A E61Y K101W K135Y) HCPIKSRKGDVLHAHYTGKLYDGTEFDSSLPRNQPFVFSLGTGERIKGWDQGLLGMCEGEWRKLVIPSELGYGERGWPPKIPGGATLVFEVELLYIER | 16100 | 36.8 | 17500
16 | FKBP-227 (protein, Description of sequence: Construct Name: FKBP-227; Mutation(s): Q72R Q84E A117W DRD E137R) HCPIKSRKGDVLHMHYTGKLEDGTEFDSSLPRNQPFVFSLGTGEVIKGWDQGLLGMCEGEKRKLVIPSELGYGERGWPPKIPGGATLVFEVELLKIRR | 293 | 29.0 | 278
17 | FKBP-163 (protein, Description of sequence: Construct Name: FKBP-163; Mutation(s): Q72R Q84E A117W DRD M54A M96V V85R) HCPIKSRKGDVLHAHYTGKLEDGTEFDSSLPRNQPFVFSLGTGERIKGWDQGLLGVCEGEKRKLVIPSELGYGERGWPPKIPGGATLVFEVELLKIER | 756 | 29.4 | 1010
18 | FKBP-220: FKBP13 DRD-AcGFP construct of Table 10 (protein, Description of sequence: Construct Name: FKBP-220; Mutation(s): Q72R Q84E A117W V85R DRD T25G) HCPIKSRKGDVLHMHYTGKLEDGGEFDSSLPRNQPFVFSLGTGERIKGWDQGLLGMCEGEKRKLVIPSELGYGERGWPPKIPGGATLVFEVELLKIER | 156 | 34.2 | 165
19 | FKBP-209: FKBP13 DRD-AcGFP construct of Table 10 (protein, Description of sequence: Construct Name: FKBP-209; Mutation(s): Q72R Q84E A117W V85R DRD M54A K101W) HCPIKSRKGDVLHAHYTGKLEDGTEFDSSLPRNQPFVFSLGTGERIKGWDQGLLGMCEGEWRKLVIPSELGYGERGWPPKIPGGATLVFEVELLKIER | 682 | 56.0 | 777
20 | FKBP-212 (protein, Description of sequence: Construct Name: FKBP-212; Mutation(s): Q72R Q84E A117W V85R DRD M54A H53L) HCPIKSRKGDVLLAHYTGKLEDGTEFDSSLPRNQPFVFSLGTGERIKGWDQGLLGMCEGEKRKLVIPSELGYGERGWPPKIPGGATLVFEVELLKIER | 299 | 40.2 | 317
